Changes are numbered by the printed parent chain.
T1: consensus S-HBs protein of HBV genotype E (ConsHBAg_E) (hepatitis B virus genotype E (consensus), UniProt Q69603 174-399)
T1 construct: also called genotype E S-HBs
T1 chain: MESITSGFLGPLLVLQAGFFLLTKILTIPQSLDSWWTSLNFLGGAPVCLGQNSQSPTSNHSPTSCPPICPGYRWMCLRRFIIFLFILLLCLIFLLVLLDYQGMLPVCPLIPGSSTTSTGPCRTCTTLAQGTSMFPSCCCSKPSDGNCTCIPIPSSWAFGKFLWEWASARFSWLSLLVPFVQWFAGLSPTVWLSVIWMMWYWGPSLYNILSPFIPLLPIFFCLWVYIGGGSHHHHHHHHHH

T2: consensus S-HBs protein of HBV genotype I (ConsHBAg_I) (hepatitis B virus genotype I (consensus), UniProt P31873 175-400)
T2 construct: also called genotype I S-HBs
T2 chain: T1 chain with S3N, R122K, L127P, T131N, F134Y, S140T, S143T, G159A, F161Y, A184V

B1: Bc3.106 (antibody)
heavy: not shown
light: DIQMTQSPSSLSASVGDRVTITCRASQGIRNDLGWYQQKPGKAPKRLIYAASSLQSGVPSRFSGSGSGTEFTLTISSLQPEDFATYYCLQHNSYPRTFGQGTKVEIKRTVAAPSVFIFPPSDEQLKSGTASVVCLLNNFYPREAKVQWKVDNALQSGNSQESVTEQDSKDSTYSLSSTLTLSKADYEKHKVYACEVTHQGLSSPVTKSFNRGEC
B2: Bc4.204 (antibody, human IgG1, lambda)
heavy: not shown
light: QSALTQPRSVSGSPGQSVTISCIGTNSDFGRYDYVSWYQQHPDKAPKLLIYDVSQRPSGVPDRFSGSKSGYTASLIISGLQADDEAEYFCCSYAGSFNLVFGGGTKVTVLGQPKAAPSVTLFPPSSEELQANKATLVCLISDFYPGAVTVAWKADSSPVKAGVETTTPSKQSNNKYAASSYLSLTPEQWKSHRSYSCQVTHEGSTVEKTVAPTECS
B3: Bc1.180 (antibody)
heavy: not shown
light: EIVLTQSPGTLSLSPGNRATLSCRASQSVTSNYFAWYQHKPGQAPRVLIYGASSRATGIPDRFSGSGSGTDFTLTISRLEPEDFAVYYCQQFGSLPYTFGQGTKLEIKRTVAAPSVFIFPPSDEQLKSGTASVVCLLNNFYPREAKVQWKVDNALQSGNSQESVTEQDSKDSTYSLSSTLTLSKADYEKHKVYACEVTHQGLSSPVTKSFNRGEC
B4: Bv4.104 (antibody)
heavy: not shown
light: QSALTQPASVSGSPGQSITISCTGTSSDVGNYKSVSWYQHHPGKAPKFMIYEGTQRPSGVSNRFSGSKSGNTASLTISGLQAEDEAHYYCCSYAGSSTWLFGGGTKLTVLGQPKAAPSVTLFPPSSEELQANKATLVCLISDFYPGAVTVAWKADSSPVKAGVETTTPSKQSNNKYAASSYLSLTPEQWKSHRSYSCQVTHEGSTVEKTVAPTECS
notes: also called PIBv4.104

Biological target: HBV genotype D viruses (produced in HepG2.2.15 cell culture supernatant) (hepatitis B virus genotype D)
Test: cell-based or functional assay

Binder	HBV-gD in vitro neutralization (IC50 µg/ml)
B1	1.39e-07 µg/mL
B2	0.000229 µg/mL
B3	5e-08 µg/mL

Biological target: T3, Adw S-HBs protein (adw HBsAg particles, GenHevac (Adw)) (hepatitis B virus, adw subtype)
T3 construct: also called GenHevac-B
Test: ELISA, AUC of binding curve
Design: unit not given beside the values

Binder	AUC (serotype binding)
B4	7
B1	36
B2	36
B3	30

Biological target: T4, Ayw S-HBs protein (ayw HBsAg particles, Engerix-B (Ayw)) (hepatitis B virus, ayw subtype)
Test: ELISA, AUC of binding curve
Design: unit not given beside the values

Binder	AUC (serotype binding)
B4	37
B1	37
B2	36
B3	23

Biological target: T3, Adw S-HBs protein (adw HBsAg particles, …)
Test: ELISA on recombinant HBV vaccine particles

Binder	EC50
B4	6580 ng/mL
B1	42.1 ng/mL
B2	15.6 ng/mL
B3	65.3 ng/mL

Biological target: T4, Ayw S-HBs protein (ayw HBsAg particles, …)
Test: ELISA on recombinant HBV vaccine particles

Binder	EC50
B4	4.6 ng/mL
B1	19.3 ng/mL
B2	15 ng/mL
B3	310 ng/mL

Biological target: T5, consensus S-HBs protein of HBV genotype A (ConsHBAg_A) (hepatitis B virus genotype A (consensus), UniProt P03141 175-400)
T5 construct: also called genotype A S-HBs
Test: flow cytometry, S-HBs-transfected 293-F cells

Binder	% of bound S-HBs-expressing cells
B4	1%
B1	70%
B2	74%
B3	57%

Biological target: T6, consensus S-HBs protein of HBV genotype B (ConsHBAg_B) (hepatitis B virus genotype B (consensus), UniProt Q9PWW3 175-400)
T6 construct: also called genotype B S-HBs
Test: flow cytometry, S-HBs-transfected 293-F cells

Binder	% of bound S-HBs-expressing cells
B4	1%
B1	55%
B2	65%
B3	45%

Biological target: T7, consensus S-HBs protein of HBV genotype C (ConsHBAg_C) (hepatitis B virus genotype C (consensus), UniProt P03140 175-400)
T7 construct: also called genotype C S-HBs
Test: flow cytometry, S-HBs-transfected 293-F cells

Binder	% of bound S-HBs-expressing cells
B4	5%
B1	83%
B2	65%
B3	43%

Biological target: T8, consensus S-HBs protein of HBV genotype D (ConsHBAg_D) (hepatitis B virus genotype D (consensus), UniProt P03138 164-389)
T8 construct: also called genotype D S-HBs; ConsD S-HBs
Test: flow cytometry, S-HBs-transfected 293-F cells

Binder	% of bound S-HBs-expressing cells
B4	73%
B1	62%
B2	68%
B3	47%

Biological target: T1, consensus S-HBs protein of HBV genotype …
Test: flow cytometry, S-HBs-transfected 293-F cells

Binder	% of bound S-HBs-expressing cells
B4	73%
B1	59%
B2	65%
B3	46%

Biological target: T9, consensus S-HBs protein of HBV genotype F (ConsHBAg_F) (hepatitis B virus genotype F (consensus), UniProt Q05496 175-400)
T9 construct: also called genotype F S-HBs
Test: flow cytometry, S-HBs-transfected 293-F cells

T9 sequence (Q05496 175-400, tags left off): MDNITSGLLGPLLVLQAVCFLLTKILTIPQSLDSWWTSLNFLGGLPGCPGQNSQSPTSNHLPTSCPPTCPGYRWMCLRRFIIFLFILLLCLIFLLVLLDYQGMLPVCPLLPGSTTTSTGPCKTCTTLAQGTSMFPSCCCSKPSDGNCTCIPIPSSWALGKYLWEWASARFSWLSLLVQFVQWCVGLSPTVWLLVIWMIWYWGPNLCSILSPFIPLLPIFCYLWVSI

Binder	% of bound S-HBs-expressing cells
B4	1%
B1	55%
B2	0%
B3	42%

Biological target: T10, consensus S-HBs protein of HBV genotype G (ConsHBAg_G) (hepatitis B virus genotype G (consensus), UniProt Q9IBI3 174-399)
T10 construct: also called genotype G S-HBs
Test: flow cytometry, S-HBs-transfected 293-F cells

Binder	% of bound S-HBs-expressing cells
B4	1%
B1	65%
B2	71%
B3	39%

Biological target: T11, consensus S-HBs protein of HBV genotype H (ConsHBAg_H) (hepatitis B virus genotype H (consensus), UniProt Q8JMZ6 175-400)
T11 construct: also called genotype H S-HBs
Test: flow cytometry, S-HBs-transfected 293-F cells

T11 sequence (Q8JMZ6 175-400, tags left off): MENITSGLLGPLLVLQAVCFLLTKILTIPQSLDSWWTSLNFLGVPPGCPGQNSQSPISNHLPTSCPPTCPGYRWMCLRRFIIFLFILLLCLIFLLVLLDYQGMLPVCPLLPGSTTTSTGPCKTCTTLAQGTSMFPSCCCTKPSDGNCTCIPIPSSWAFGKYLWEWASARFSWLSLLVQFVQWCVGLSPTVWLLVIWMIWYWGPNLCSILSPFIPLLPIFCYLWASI

Binder	% of bound S-HBs-expressing cells
B4	1%
B1	59%
B2	1%
B3	55%

Biological target: T2, consensus S-HBs protein of HBV genotype …
Test: flow cytometry, S-HBs-transfected 293-F cells

Binder	% of bound S-HBs-expressing cells
B4	1%
B1	53%
B2	58%
B3	22%

Biological target: genotype D S-HBs mutant protein T126A (hepatitis B virus genotype D, UniProt P03138 164-389)
Test: flow cytometry, S-HBs-transfected 293-F cells

Binder	% of bound S-HBs-expressing cells
B4	64%
B1	71%
B2	60%
B3	38%

Biological target: genotype D S-HBs mutant protein M133T (hepatitis B virus genotype D, UniProt P03138 164-389)
Test: flow cytometry, S-HBs-transfected 293-F cells

Binder	% of bound S-HBs-expressing cells
B4	64%
B1	66%
B2	59%
B3	25%

Biological target: genotype D S-HBs mutant protein Y134V (hepatitis B virus genotype D, UniProt P03138 164-389)
Test: flow cytometry, S-HBs-transfected 293-F cells

Binder	% of bound S-HBs-expressing cells
B4	60%
B1	69%
B2	57%
B3	25%

Biological target: genotype D S-HBs mutant protein G145R (hepatitis B virus genotype D, UniProt P03138 164-389)
Test: flow cytometry, S-HBs-transfected 293-F cells

Binder	% of bound S-HBs-expressing cells
B4	54%
B1	67%
B2	55%
B3	14%

Biological target: genotype D S-HBs mutant protein N146S (hepatitis B virus genotype D, UniProt P03138 164-389)
Test: flow cytometry, S-HBs-transfected 293-F cells

Binder	% of bound S-HBs-expressing cells
B4	63%
B1	63%
B2	53%
B3	27%

Biological target: T5, consensus S-HBs protein of HBV genotype …
Test: flow cytometry on cells expressing genotype-specific S-HBs

Binder	binding result
B4	no binding

Biological target: T6, consensus S-HBs protein of HBV genotype …
Test: as above

Binder	binding result
B4	no binding

Biological target: T7, consensus S-HBs protein of HBV genotype …
Test: as above

Binder	binding result
B4	no binding

Biological target: T9, consensus S-HBs protein of HBV genotype …
Test: as above

Binder	binding result
B4	no binding
B2	no binding

Biological target: T10, consensus S-HBs protein of HBV genotype …
Test: as above

Binder	binding result
B4	no binding

Biological target: T11, consensus S-HBs protein of HBV genotype …
Test: as above

Binder	binding result
B4	no binding
B2	no binding

Biological target: T2, consensus S-HBs protein of HBV genotype …
Test: as above

Binder	binding result
B4	no binding

Reference: patent publication US20230340081A1 (Hoffmann-La Roche, published 2023)
